Assay results published in the domain aggregation screens of Martell et al. (2025).

Experiment: soluble fraction after stress (log2 fold change); higher = more stays soluble; pooled small domains, quantitative proteomics
Conditions: stress: pH 4
Outline: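 Small protein domains from pooled custom libraries were exposed to pH 4, then quantified with high-throughput quantitative proteomics. The fold change in how much of each domain remains soluble is read as aggregation propensity. It is given as log2, with higher values meaning more stayed soluble.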
With “HMGMTRPLFVTDPGLVRIGLVSPIFEKLGSGKLSPQLFDQVKEDPPEQTVFDGVEFARETGIDGVIGFG” the “soluble fraction (log2)” value was 0.0343. For “HMGMVDKSMYSRYDVGDLVKVLRGPLEGSEGHITEINTDTGTVKVETVFFGRSTVVEVDFSEIDK”, the “soluble fraction (log2)” value was -1.35. In the case of “HMGNAQELQKKLEGLKGISGIEKLESDHYAEKYLVRITQPVDHKNPAAGTFTQRVIVAHVGFDRPTILVT”, the “soluble fraction (log2)” value was 0.318. In the case of “HMGNHRNMSAEEEAAILAPFKARAEAGELVEISEIAKAYQSAVDHPISRGQIYFVLHRHGWRKV”, the “soluble fraction (log2)” value was -0.638. With “HMGNIALAIARFREMIAEDPNLQPVRLHLAMALMADHQDEAARGQLEKLRSDQLPDDIRKIVDDALAALR” the “soluble fraction (log2)” value was -0.487. For “HMGNIIITPNPASDFIKIISNSPIIKFGFYDIYGNTINKKFNDNSINISDLPVGMYLINLNERYFKLLK”, the “soluble fraction (log2)” value was 0.021. In the case of “HMGNIITQEAAVKLAQDRVPNATLVKIEYDFDDGRPVYEGELREGRWEYEFEIDAATGEFLKWEKD”, the “soluble fraction (log2)” value was -0.163. With “HMGNKWKPIILYLLSNGSMRFGMLNALIPTISKKVLTNQLKELENDGLLLRQSFAEIPPRVEYSLTEKA” the “soluble fraction (log2)” value was 0.165. In the case of “HMGNLASGAYEQIKRRILSLEYLPGSILQERGLAEELGISRTPVREAIHRLSQEGWLKINSRKNIRVR”, the “soluble fraction (log2)” value was -0.482. In the case of “HMGNLASRVAEQLLDKMRGDSLVPGTRLPSEIAMAKHFGVSRTVMREAIARLKADGLLETRRGSGAFVLAT”, the “soluble fraction (log2)” value was -0.0652. With “HMGNLEENFRLKAGTEDGAWEFIRYHLGKLPVVNESNGTAIVNAERQAFLLFDRMVAFHIQRGVMVPLSAP” the “soluble fraction (log2)” value was -0.159. For “HMGNLVDGINKKLTHVRDSLPEGYTLDEFKSAFQQQYPAAYDAYEGDKGKQFDKWLGNVIQSLPKK”, the “soluble fraction (log2)” value was 0.137. In the case of “HMGNNSIDIKDVIYNLVEISQLQAFDIVKHFKTWENLVNKPDELDTVIDGDSDIVDRIKYKIKSLS”, the “soluble fraction (log2)” value was -0.568. With “HMGNQALSSVLSDIAGIGPVKTKELLRVYPDLDSLRQAPVEEVAKVKGIGRQLAQKIHDHFSSR” the “soluble fraction (log2)” value was -0.0357. For “HMGNRWENLISNKMIDDVDEELLRKYIAQAHDAGRIAISYTDRKTVLNQLELTDGDRLLNAGKVLFSD”, the “soluble fraction (log2)” value was -0.657. In the case of “HMGNTTEVLVATQDVKANTKIKESMFTTERVDTASLPDNYLSADSAKDVVGYYTYIGFTKGSVISKSNIAT”, the “soluble fraction (log2)” value was 0.0364. In the case of “HMGNVRSWKGWTSAGGTRVQMRQGDSINSMARRYGVPIQAIVAVNGIDDPAKVQPGQSVIIPTYVY”, the “soluble fraction (log2)” value was 0.118. In the case of “HMGNWEQQLRSWADGELATGKQDILTTAVPAFERALIETALSHTNGRKRDAAELLGWGRNTLTRKLKELGM”, the “soluble fraction (log2)” value was -0.46. With “HMGNYEEAILAFEAAIKIDPKNADAYRKLAEAYEKTGDEDAALRTLETGAEATGDRELADLAEKKRQELDA” the “soluble fraction (log2)” value was 0.22. For “HMGPASTGAHQLGLKPGDEVTHRAWGEGVVTSTTGEGDRAEAVVDFDAVGEKRLLLAWAPLER”, the “soluble fraction (log2)” value was -0.705. In the case of “HMGPDTVDRTRRFKWVDNEVVVNFGKNAGRTLRDLAENDPGFLRWIVRSDFSDEVRTIANDALMGKFPTRK”, the “soluble fraction (log2)” value was -0.151. For “HMGPEAFPVPYVVDIELDRAIYVIEQSGFIVGQKLEANDNNVPRGFVISQNPPAGTKLGPESIVDLVVSS”, the “soluble fraction (log2)” value was -0.281. With “HMGPLDIAQLKSDFLGGDAQLARRAWDQLATKAGDEGRDFLISSLGSSDPQIRNRVALGIHES” the “soluble fraction (log2)” value was -0.152. With “HMGPLTMGQRIVRLRTQAGLSQDALAEQLGVSRQSVSKWETDGSVPDLDRLVKLSKVFGVTLDELVKG” the “soluble fraction (log2)” value was ≥ 0.43. For “HMGPPAVGAKLQVLRQARKLSLDELSRRAGVSKSMLSQVERNLANPTVAVLWRLATALGVGLADFLSP”, the “soluble fraction (log2)” value was -0.524. With “HMGPRVSAGPGRHRVQPGDTLDDIAARYRVSSRDLMLVNGLRNANHVEAGQTLKLPSNAVIA” the “soluble fraction (log2)” value was ≥ 0.43. For “HMGPSLIRIASNPVAEVFIDGTRVGTTPFEMPADGTLKTVRLTAKDHDDLVVPLRSMKSMEIMLTLRRI”, the “soluble fraction (log2)” value was -0.136. With “HMGPTLTDEEEVVLNLLEKNHPVLLSELKENAGLSNKKWDKAIKGLSAHKLAKVTKTDDGLFVHLS” the “soluble fraction (log2)” value was -0.167. For “HMGPTPTSAQLTEAKRLRTKLDDLNPELAERLWSEHREPYTETQYQTLIEKLAAEVQSAEGEIGR”, the “soluble fraction (log2)” value was 0.351. In the case of “HMGPVRRDLEINGRMVPLTIREHARATRITLRIEPGGQALRLTIPPGLPTREVDSFLTRHHGWLMTKLAHI”, the “soluble fraction (log2)” value was 0.0131. In the case of “HMGPWTETAAKGDAVSKRMLITWLQENADAEFLAAQKLTGQATSVAKRVTKDQLVELYLSVTTAA”, the “soluble fraction (log2)” value was -0.149. For “HMGQAAHYEGVKGDGESDTDVISRVLTAAGAEAQKDDIFVVKELIAGGKYSYTAYVYDGSVWAAM”, the “soluble fraction (log2)” value was -0.502. In the case of “HMGQAEEVRYSTFLDEVRNGRIEQVVLQGEHIIGTRKDKTVFSVFNPETDYTALIGTLSKSGVTIEGRP”, the “soluble fraction (log2)” value was 0.103. In the case of “HMGQARQSAIRELGNDPTSGKKITVRSGRYGPYVTDGEVNASLRKGDDPQTIDLDRAIELLAARREKLG”, the “soluble fraction (log2)” value was -0.324. With “HMGQDGFIGLEAAKKLVLQKLGLTSAEFIKAELDAEDRKYELELIVDGIEYDFDIDAYSGAFLKQEQETV” the “soluble fraction (log2)” value was 0.122. For “HMGQEEKDIFLKLINISGIGPKLALNILSGIEASELEEAVRNTNVTRLSMVPGIGQKTALRIIMELSDKLE”, the “soluble fraction (log2)” value was -0.881. With “HMGQELTMPDLKSMSRSNAEEKLKKMGLKLGAVFEENAKEPAGTVINQDPRSGSKITKGQTVDITVSLGEK” the “soluble fraction (log2)” value was 0.0104. With “HMGQERAVPDVKGQSFDMAQGNISRAGLKAVVTDSVYDSYARPGTVVEQSPIPLAKIKRGGTVYLTLVA” the “soluble fraction (log2)” value was -0.0752.
